Laboratory results from paper PMC10319729.

Target: LGR4 co-expressed with ZNRF3ΔRING on HEK293T cells (LGR4-E3 ligase complex), Q9BXB1

EC50 of TOPFlash (Wnt/β-catenin reporter) activity in STF cells, which endogenously express LGR4, RNF43 and ZNRF3: 0.79 nM
B1: RSPO2 furin domain with a C-terminal His tag (R2Fu-His), Q6UXX9 37-143 (domain or fragment)
chain: NPICKGCLSCSKDNGCSRCQQKLFFFLRREGMRQYGECLHSCPSGYYGHRAPDMNRCARCRIENCDSCFSKDFCTKCKVGFYLHRGRCFDECPDGFAPLEETMECVE
